Assay results taken from IntAct's records for PubMed 31570497.

B1: Envelopment polyprotein (Uukuniemi virus (strain S23)), P09613 (parent)
chain: MVRTYLLLLLLCGPATPFFNHLMDVTRRLLDSSNATWQRDQPDTHRLSRLDAHVMSMLGVGSHIDEVSVNHSQHLHNFRSYNCEEGRRTLTMMDPKSGKFKRLKCNENQTLSKDCASCIEKKSSIMKSEHLVYDDAICQSDYSSPEAMPDHETHLCRIGPLHIQHCTHEAKRVQHVSWFWIDGKLRVYDDFSVSWTEGKFLSLFDCLNETSKDHNCNKAVCLEGRCSGDLQFCTEFTCSYAKADCNCKRNQVSGVAVVHTKHGSFMPECMGQSLWSVRKPLSKRSVTVQQPCMDCESDCKVDHILVIVRHFYPDHYQACLGSTCLTGRAKDKEFKIPFKMADRLSDSHFEIRIWDKERSNEYFLESRCESVDACAAITCWFCRANWANIHCFSKEQVLILVAVSSLCILLLASVLRALKVIATFTWKIIKPFWWILSLLCRTCSKRLNKRAERLKESIHSLEEGLNNVDEGPREQNNPARAVARPNVRQKMFNLTRLSPVVVGMLCLACPVESCSDSISVTASSQRCSTSSDGVNSCFVSTSSLLQVSPKGQESCLILKGPTGTAVDSIRIKTTDIKLECVRRDLYWVPRVTHRCIGTRRCHLMGACKGEACSEFKINDYSPEWGHEEELMAQLGWSYCVEQCGGALCQCFNMRPSCFYLRKTFSHLSQDAFNIYECSEWSYRINVLVSTNSTHSNLTLKLGVPDSIPHGLISLSSVSQPPAIAYSECFGEDLHGTKFHTVCNRRTDYTLGRIGEIQCPTKADALAVSKRCISSDSIIFSKVHKDSVDCQSSIIDPMTIRNRNKLPSTVGSVTFWPTETSVEAAIPDLASATMLIRLDGYTIQFRSDSNKCSPRFLSLSGCYNCEAGAKLELEHVTDFGTALGILECPSLGYTTYYEVKNTLEKSIRTMHLNGSHVEAKCYFRCPNSESQLTIRGELIYLFNDDIRHHNQTLSPGLSPKSGSGWDPFGWFKASWLRAIWAILGGTVSLIIGVVIIYMVFTLCLKVKKS

Variants of: B1
Conditions: with gbf1_human GBF1, Q92538
Chain of gbf1_human GBF1, Q92538 (Q92538 whole entry): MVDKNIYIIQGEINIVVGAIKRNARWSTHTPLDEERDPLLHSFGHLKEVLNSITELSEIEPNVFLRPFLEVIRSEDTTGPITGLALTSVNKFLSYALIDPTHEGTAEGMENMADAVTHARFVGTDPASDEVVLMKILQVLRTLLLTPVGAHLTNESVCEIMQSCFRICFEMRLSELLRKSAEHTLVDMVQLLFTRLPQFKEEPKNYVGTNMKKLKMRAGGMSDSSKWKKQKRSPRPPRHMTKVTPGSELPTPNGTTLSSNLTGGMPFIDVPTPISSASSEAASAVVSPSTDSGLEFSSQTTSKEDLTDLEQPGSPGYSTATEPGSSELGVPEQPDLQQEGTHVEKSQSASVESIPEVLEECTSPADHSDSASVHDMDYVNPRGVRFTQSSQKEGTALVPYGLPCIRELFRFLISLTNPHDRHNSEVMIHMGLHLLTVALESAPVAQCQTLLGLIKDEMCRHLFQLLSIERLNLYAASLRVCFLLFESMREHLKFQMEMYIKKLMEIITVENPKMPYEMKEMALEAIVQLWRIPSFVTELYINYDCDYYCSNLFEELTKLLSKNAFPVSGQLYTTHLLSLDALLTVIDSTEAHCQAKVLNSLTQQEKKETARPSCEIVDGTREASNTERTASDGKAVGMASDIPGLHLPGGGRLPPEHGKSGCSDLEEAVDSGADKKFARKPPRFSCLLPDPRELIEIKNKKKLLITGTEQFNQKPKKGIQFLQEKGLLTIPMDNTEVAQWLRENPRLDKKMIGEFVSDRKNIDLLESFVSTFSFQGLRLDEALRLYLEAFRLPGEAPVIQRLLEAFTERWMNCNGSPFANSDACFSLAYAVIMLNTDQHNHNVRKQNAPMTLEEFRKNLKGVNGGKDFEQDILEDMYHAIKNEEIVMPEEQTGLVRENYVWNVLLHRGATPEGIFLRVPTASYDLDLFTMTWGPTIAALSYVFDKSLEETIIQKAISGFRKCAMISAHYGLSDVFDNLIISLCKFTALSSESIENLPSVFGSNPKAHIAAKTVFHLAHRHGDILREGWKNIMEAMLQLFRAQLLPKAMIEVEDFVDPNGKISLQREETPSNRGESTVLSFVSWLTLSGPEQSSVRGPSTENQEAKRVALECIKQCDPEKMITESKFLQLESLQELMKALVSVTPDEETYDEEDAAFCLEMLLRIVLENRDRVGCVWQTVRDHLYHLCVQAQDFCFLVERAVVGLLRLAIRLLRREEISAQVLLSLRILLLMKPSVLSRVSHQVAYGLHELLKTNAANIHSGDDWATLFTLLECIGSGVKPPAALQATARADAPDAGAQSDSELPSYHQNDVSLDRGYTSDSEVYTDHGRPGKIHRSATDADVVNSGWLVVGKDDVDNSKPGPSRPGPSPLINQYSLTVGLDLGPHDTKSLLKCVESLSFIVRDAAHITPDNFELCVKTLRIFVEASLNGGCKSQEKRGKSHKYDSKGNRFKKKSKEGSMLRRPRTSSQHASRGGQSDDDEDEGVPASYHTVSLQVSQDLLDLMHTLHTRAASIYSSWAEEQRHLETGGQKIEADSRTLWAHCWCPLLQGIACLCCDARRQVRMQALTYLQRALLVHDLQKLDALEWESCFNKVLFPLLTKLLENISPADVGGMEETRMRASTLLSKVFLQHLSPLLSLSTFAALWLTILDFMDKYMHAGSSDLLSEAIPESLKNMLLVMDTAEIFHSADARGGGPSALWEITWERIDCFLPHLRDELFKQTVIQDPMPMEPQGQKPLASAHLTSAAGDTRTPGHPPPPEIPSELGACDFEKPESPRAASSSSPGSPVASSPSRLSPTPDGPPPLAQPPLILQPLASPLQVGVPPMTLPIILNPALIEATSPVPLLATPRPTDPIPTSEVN

Variant | effect of a mutation on the interaction
L438A;L439A | with no effect
L461A;E462A;E463A;G464A;L465A | with no effect
